The values that follow come from patent publication US20100331246A1 (INDIANA UNIVERSITY RESEARCH AND TECHNOLOGY, published 2010).

Assay in all cases: cell-based or functional assay
The target of experiment [1] is GLP-1 receptor (UniProt P43220).
Experiment [2] deals with GLP-1 receptor (UniProt P43220 24-463, limits assumed).
In the next experiment the target is glucagon receptor (UniProt P47871 26-477).

Read-outs that look alike come from different tables or passages of the source.

GLP-1 receptor (UniProt P43220), sequence (P43220 24-463 limits assumed): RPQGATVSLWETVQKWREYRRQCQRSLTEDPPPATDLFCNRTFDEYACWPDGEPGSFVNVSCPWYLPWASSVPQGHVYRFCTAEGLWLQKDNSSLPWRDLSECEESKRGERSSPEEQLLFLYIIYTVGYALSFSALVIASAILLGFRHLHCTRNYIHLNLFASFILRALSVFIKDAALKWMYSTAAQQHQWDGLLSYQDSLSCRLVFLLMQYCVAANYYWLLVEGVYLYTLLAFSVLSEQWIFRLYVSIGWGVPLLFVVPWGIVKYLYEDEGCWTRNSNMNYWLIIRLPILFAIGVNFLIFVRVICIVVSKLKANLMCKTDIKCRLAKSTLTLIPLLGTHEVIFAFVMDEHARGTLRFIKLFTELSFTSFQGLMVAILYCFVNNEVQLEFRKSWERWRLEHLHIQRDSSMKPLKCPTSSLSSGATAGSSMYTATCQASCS

(H7F),(E9Q),GLP(8-36)-CEX (peptide): the % potency with respect to GLP-1 with GLP-1 receptor [1] was 33.3%.

For F^5V^6-O-F^7,GLP(8-36)-CEX (peptide), the % potency with respect to parent with GLP-1 receptor [1] turned out to be 1.3%.

G^5V^6-O-F^7,GLP(8-36)CEX (peptide): in the experiment with GLP-1 receptor [1], the % potency with respect to parent was 12%; the % potency with respect to parent, before incubation is 10.9%; the % potency with respect to parent, prodrug incubated in PBS for 24 hrs worked out at 46%; the % potency with respect to parent, prodrug incubated in PBS for 168 hrs worked out at 95.8%.

As for HO-F5dV6-O-F7,GLP(8-36)-CEX (peptide), the % potency with respect to parent in the experiment with GLP-1 receptor [2] was 7%.

As to HO-F^5F^6-O-F^7,GLP(8-36)-CEX (peptide), in the experiment with GLP-1 receptor [1], the % potency with respect to parent was determined as 3.6%; the % potency with respect to parent, before incubation stood at 3.7%; the % potency with respect to parent, prodrug incubated in PBS for 24 hrs stood at 17.2%.

With “[A2E3, E16K20(Lactam), D28]G(1~29) (peptide)”, the GLP-1 EC50 with GLP-1 receptor [2] came out at 0.2 nM. The same substance returned a Glucagon IC50 with glucagon receptor of 130 nM.

As to “[A2E3, E16K20(Lactam), D28]G(2~29) (peptide)”, in the experiment with glucagon receptor, the Glucagon IC50 was determined as 63 nM.

For “[E9, E16K20(lactam), D28]G(4~29) (peptide)”, the GLP-1 EC50 with GLP-1 receptor [2] is 151 nM. Further, the Glucagon IC50 with glucagon receptor lay in the range of 10 to 30 nM.

“[PLA6, D9, E16, E24K28(lactam), D28]G(6~29) (peptide)” displayed a GLP-1 EC50 with GLP-1 receptor [2] of 289 nM. Also, the Glucagon IC50 with glucagon receptor came to 22 nM.

On to “[PLA6, D9, E16, K20E24(Lactam), D28]G(6-29) (peptide)”, for which the GLP-1 EC50 with GLP-1 receptor [2] is 239 nM. The Glucagon IC50 with glucagon receptor amounted to 74 nM.

Regarding “[PLA6, D9, E16K20(lactam), D28]G(6-29) (peptide)”, the GLP-1 EC50 with GLP-1 receptor [2] was 5 to 25 nM; with GLP-1 receptor [2] (record 2), 4 nM. The Glucagon IC50 with glucagon receptor was 10 to 30 nM; with glucagon receptor (record 2), 6 nM.

Regarding “[PLA6, D9, K12E16(Lactam), D28]G(6-29) (peptide)”, the figures for the GLP-1 EC50 with GLP-1 receptor [2] and with GLP-1 receptor [2] (record 2) were 177 nM and 21 nM, respectively. For the same substance, the Glucagon IC50 with glucagon receptor is 63 nM; in the experiment with glucagon receptor (record 2), 13 nM.
